T1: human IL-18BP (human, UniProt O95998 31-194)
T1 construct: also called hIL-18BP; Mature Human Isoform A
T1 sequence: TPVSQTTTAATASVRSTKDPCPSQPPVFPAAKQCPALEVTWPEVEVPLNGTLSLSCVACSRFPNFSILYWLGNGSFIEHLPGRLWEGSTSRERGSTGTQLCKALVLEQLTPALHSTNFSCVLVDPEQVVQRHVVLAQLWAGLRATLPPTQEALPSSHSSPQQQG

B1: SA301a light chain variant S27R (antibody, V domains shown)
VH: QVQLQESGPGLVKPSQTLSLTCTVSGYSITSDYNSHWIRQPPGKGLEWIGYIHYSGSTNYNPSLKSRVTISRDTSKNQFSLKLSSVTAADTAVYYCARNYGSIYVNYFDYWGQGTLVTVSS
VL: EIVLTQSPATLSLSPGERATLSCSASRSVSYMYWYQQKPGQAPRPLIYRTSNLASGIPARFSGSGSGTDFTLTISSLEPEDFAVYYCQQYHSYPTFGGGTKVEIK
B2: SA301a light chain variant S27Q (antibody, V domains shown)
VH: QVQLQESGPGLVKPSQTLSLTCTVSGYSITSDYNSHWIRQPPGKGLEWIGYIHYSGSTNYNPSLKSRVTISRDTSKNQFSLKLSSVTAADTAVYYCARNYGSIYVNYFDYWGQGTLVTVSS
VL: EIVLTQSPATLSLSPGERATLSCSASQSVSYMYWYQQKPGQAPRPLIYRTSNLASGIPARFSGSGSGTDFTLTISSLEPEDFAVYYCQQYHSYPTFGGGTKVEIK
B3: SA301a light chain variant S28D (antibody, V domains shown)
VH: QVQLQESGPGLVKPSQTLSLTCTVSGYSITSDYNSHWIRQPPGKGLEWIGYIHYSGSTNYNPSLKSRVTISRDTSKNQFSLKLSSVTAADTAVYYCARNYGSIYVNYFDYWGQGTLVTVSS
VL: EIVLTQSPATLSLSPGERATLSCSASSDVSYMYWYQQKPGQAPRPLIYRTSNLASGIPARFSGSGSGTDFTLTISSLEPEDFAVYYCQQYHSYPTFGGGTKVEIK
B4: SA301a light chain variant S28N (antibody, V domains shown)
VH: QVQLQESGPGLVKPSQTLSLTCTVSGYSITSDYNSHWIRQPPGKGLEWIGYIHYSGSTNYNPSLKSRVTISRDTSKNQFSLKLSSVTAADTAVYYCARNYGSIYVNYFDYWGQGTLVTVSS
VL: EIVLTQSPATLSLSPGERATLSCSASSNVSYMYWYQQKPGQAPRPLIYRTSNLASGIPARFSGSGSGTDFTLTISSLEPEDFAVYYCQQYHSYPTFGGGTKVEIK
B5: SA301a light chain variant S28H (antibody, V domains shown)
VH: QVQLQESGPGLVKPSQTLSLTCTVSGYSITSDYNSHWIRQPPGKGLEWIGYIHYSGSTNYNPSLKSRVTISRDTSKNQFSLKLSSVTAADTAVYYCARNYGSIYVNYFDYWGQGTLVTVSS
VL: EIVLTQSPATLSLSPGERATLSCSASSHVSYMYWYQQKPGQAPRPLIYRTSNLASGIPARFSGSGSGTDFTLTISSLEPEDFAVYYCQQYHSYPTFGGGTKVEIK
B6: SA301a light chain variant S28F (antibody, V domains shown)
VH: QVQLQESGPGLVKPSQTLSLTCTVSGYSITSDYNSHWIRQPPGKGLEWIGYIHYSGSTNYNPSLKSRVTISRDTSKNQFSLKLSSVTAADTAVYYCARNYGSIYVNYFDYWGQGTLVTVSS
VL: EIVLTQSPATLSLSPGERATLSCSASSFVSYMYWYQQKPGQAPRPLIYRTSNLASGIPARFSGSGSGTDFTLTISSLEPEDFAVYYCQQYHSYPTFGGGTKVEIK
B7: SA301a light chain variant S28P (antibody, V domains shown)
VH: QVQLQESGPGLVKPSQTLSLTCTVSGYSITSDYNSHWIRQPPGKGLEWIGYIHYSGSTNYNPSLKSRVTISRDTSKNQFSLKLSSVTAADTAVYYCARNYGSIYVNYFDYWGQGTLVTVSS
VL: EIVLTQSPATLSLSPGERATLSCSASSPVSYMYWYQQKPGQAPRPLIYRTSNLASGIPARFSGSGSGTDFTLTISSLEPEDFAVYYCQQYHSYPTFGGGTKVEIK
B8: SA301a light chain variant S28E (antibody, V domains shown)
VH: QVQLQESGPGLVKPSQTLSLTCTVSGYSITSDYNSHWIRQPPGKGLEWIGYIHYSGSTNYNPSLKSRVTISRDTSKNQFSLKLSSVTAADTAVYYCARNYGSIYVNYFDYWGQGTLVTVSS
VL: EIVLTQSPATLSLSPGERATLSCSASSEVSYMYWYQQKPGQAPRPLIYRTSNLASGIPARFSGSGSGTDFTLTISSLEPEDFAVYYCQQYHSYPTFGGGTKVEIK
B9: SA301a light chain variant S27P (antibody, V domains shown)
VH: QVQLQESGPGLVKPSQTLSLTCTVSGYSITSDYNSHWIRQPPGKGLEWIGYIHYSGSTNYNPSLKSRVTISRDTSKNQFSLKLSSVTAADTAVYYCARNYGSIYVNYFDYWGQGTLVTVSS
VL: EIVLTQSPATLSLSPGERATLSCSASPSVSYMYWYQQKPGQAPRPLIYRTSNLASGIPARFSGSGSGTDFTLTISSLEPEDFAVYYCQQYHSYPTFGGGTKVEIK
B10: SA301a light chain variant S28G (antibody, V domains shown)
VH: QVQLQESGPGLVKPSQTLSLTCTVSGYSITSDYNSHWIRQPPGKGLEWIGYIHYSGSTNYNPSLKSRVTISRDTSKNQFSLKLSSVTAADTAVYYCARNYGSIYVNYFDYWGQGTLVTVSS
VL: EIVLTQSPATLSLSPGERATLSCSASSGVSYMYWYQQKPGQAPRPLIYRTSNLASGIPARFSGSGSGTDFTLTISSLEPEDFAVYYCQQYHSYPTFGGGTKVEIK
B11: SA301a light chain variant S28K (antibody, V domains shown)
VH: QVQLQESGPGLVKPSQTLSLTCTVSGYSITSDYNSHWIRQPPGKGLEWIGYIHYSGSTNYNPSLKSRVTISRDTSKNQFSLKLSSVTAADTAVYYCARNYGSIYVNYFDYWGQGTLVTVSS
VL: EIVLTQSPATLSLSPGERATLSCSASSKVSYMYWYQQKPGQAPRPLIYRTSNLASGIPARFSGSGSGTDFTLTISSLEPEDFAVYYCQQYHSYPTFGGGTKVEIK
B12: SA301a light chain variant S28T (antibody, V domains shown)
VH: QVQLQESGPGLVKPSQTLSLTCTVSGYSITSDYNSHWIRQPPGKGLEWIGYIHYSGSTNYNPSLKSRVTISRDTSKNQFSLKLSSVTAADTAVYYCARNYGSIYVNYFDYWGQGTLVTVSS
VL: EIVLTQSPATLSLSPGERATLSCSASSTVSYMYWYQQKPGQAPRPLIYRTSNLASGIPARFSGSGSGTDFTLTISSLEPEDFAVYYCQQYHSYPTFGGGTKVEIK
B13: SA301a light chain variant V29H (antibody, V domains shown)
VH: QVQLQESGPGLVKPSQTLSLTCTVSGYSITSDYNSHWIRQPPGKGLEWIGYIHYSGSTNYNPSLKSRVTISRDTSKNQFSLKLSSVTAADTAVYYCARNYGSIYVNYFDYWGQGTLVTVSS
VL: EIVLTQSPATLSLSPGERATLSCSASSSHSYMYWYQQKPGQAPRPLIYRTSNLASGIPARFSGSGSGTDFTLTISSLEPEDFAVYYCQQYHSYPTFGGGTKVEIK
B14: SA301a light chain variant S27M (antibody, V domains shown)
VH: QVQLQESGPGLVKPSQTLSLTCTVSGYSITSDYNSHWIRQPPGKGLEWIGYIHYSGSTNYNPSLKSRVTISRDTSKNQFSLKLSSVTAADTAVYYCARNYGSIYVNYFDYWGQGTLVTVSS
VL: EIVLTQSPATLSLSPGERATLSCSASMSVSYMYWYQQKPGQAPRPLIYRTSNLASGIPARFSGSGSGTDFTLTISSLEPEDFAVYYCQQYHSYPTFGGGTKVEIK
B15: SA301a light chain variant S28M (antibody, V domains shown)
VH: QVQLQESGPGLVKPSQTLSLTCTVSGYSITSDYNSHWIRQPPGKGLEWIGYIHYSGSTNYNPSLKSRVTISRDTSKNQFSLKLSSVTAADTAVYYCARNYGSIYVNYFDYWGQGTLVTVSS
VL: EIVLTQSPATLSLSPGERATLSCSASSMVSYMYWYQQKPGQAPRPLIYRTSNLASGIPARFSGSGSGTDFTLTISSLEPEDFAVYYCQQYHSYPTFGGGTKVEIK
B16: SA301a light chain variant S28Y (antibody, V domains shown)
VH: QVQLQESGPGLVKPSQTLSLTCTVSGYSITSDYNSHWIRQPPGKGLEWIGYIHYSGSTNYNPSLKSRVTISRDTSKNQFSLKLSSVTAADTAVYYCARNYGSIYVNYFDYWGQGTLVTVSS
VL: EIVLTQSPATLSLSPGERATLSCSASSYVSYMYWYQQKPGQAPRPLIYRTSNLASGIPARFSGSGSGTDFTLTISSLEPEDFAVYYCQQYHSYPTFGGGTKVEIK
B17: SA301a light chain variant V29R (antibody, V domains shown)
VH: QVQLQESGPGLVKPSQTLSLTCTVSGYSITSDYNSHWIRQPPGKGLEWIGYIHYSGSTNYNPSLKSRVTISRDTSKNQFSLKLSSVTAADTAVYYCARNYGSIYVNYFDYWGQGTLVTVSS
VL: EIVLTQSPATLSLSPGERATLSCSASSSRSYMYWYQQKPGQAPRPLIYRTSNLASGIPARFSGSGSGTDFTLTISSLEPEDFAVYYCQQYHSYPTFGGGTKVEIK
B18: SA301a light chain variant S27K (antibody, V domains shown)
VH: QVQLQESGPGLVKPSQTLSLTCTVSGYSITSDYNSHWIRQPPGKGLEWIGYIHYSGSTNYNPSLKSRVTISRDTSKNQFSLKLSSVTAADTAVYYCARNYGSIYVNYFDYWGQGTLVTVSS
VL: EIVLTQSPATLSLSPGERATLSCSASKSVSYMYWYQQKPGQAPRPLIYRTSNLASGIPARFSGSGSGTDFTLTISSLEPEDFAVYYCQQYHSYPTFGGGTKVEIK
B19: SA301a light chain variant V29L (antibody, V domains shown)
VH: QVQLQESGPGLVKPSQTLSLTCTVSGYSITSDYNSHWIRQPPGKGLEWIGYIHYSGSTNYNPSLKSRVTISRDTSKNQFSLKLSSVTAADTAVYYCARNYGSIYVNYFDYWGQGTLVTVSS
VL: EIVLTQSPATLSLSPGERATLSCSASSSLSYMYWYQQKPGQAPRPLIYRTSNLASGIPARFSGSGSGTDFTLTISSLEPEDFAVYYCQQYHSYPTFGGGTKVEIK
B20: SA301a light chain variant S27A (antibody, V domains shown)
VH: QVQLQESGPGLVKPSQTLSLTCTVSGYSITSDYNSHWIRQPPGKGLEWIGYIHYSGSTNYNPSLKSRVTISRDTSKNQFSLKLSSVTAADTAVYYCARNYGSIYVNYFDYWGQGTLVTVSS
VL: EIVLTQSPATLSLSPGERATLSCSASASVSYMYWYQQKPGQAPRPLIYRTSNLASGIPARFSGSGSGTDFTLTISSLEPEDFAVYYCQQYHSYPTFGGGTKVEIK
B21: SA301a light chain variant S28Q (antibody, V domains shown)
VH: QVQLQESGPGLVKPSQTLSLTCTVSGYSITSDYNSHWIRQPPGKGLEWIGYIHYSGSTNYNPSLKSRVTISRDTSKNQFSLKLSSVTAADTAVYYCARNYGSIYVNYFDYWGQGTLVTVSS
VL: EIVLTQSPATLSLSPGERATLSCSASSQVSYMYWYQQKPGQAPRPLIYRTSNLASGIPARFSGSGSGTDFTLTISSLEPEDFAVYYCQQYHSYPTFGGGTKVEIK

The assay deals with T1, human IL-18BP. The assay can be described thus: BLI, apparent KD, one conc. (BLI is a label-free optical method that tracks binding on a fibre tip over time.)
For B1, the Kd is 0.45 nM.

In the case of B2, the Kd was determined as 0.43 nM.

For B3, the Kd is 0.42 nM.

In the case of B4, the Kd was 0.45 nM.

With B5, the Kd came to 0.44 nM.

In the case of B6, the Kd came out at 0.46 nM.

On to B7, for which the Kd came out at 0.39 nM.

With B8, the Kd was found to be 0.39 nM.

In the case of B9, the Kd came to 0.45 nM.

As to B10, the Kd came to 0.51 nM.

On to B11, for which the Kd turned out to be 0.51 nM.

As to B12, the Kd was found to be 0.43 nM.

As for B13, the Kd came out at 0.47 nM.

In the case of B14, the Kd came to 0.63 nM.

For the molecule B15, the Kd was determined as 0.51 nM.

With B16, the Kd came out at 0.47 nM.

For the molecule B17, the Kd was determined as 0.38 nM.

On to B18, for which the Kd is 0.52 nM.

Turning to B19, the Kd turned out to be 0.33 nM.

For the molecule B20, the Kd was found to be 0.47 nM.

As to B21, the Kd stood at 0.45 nM.

The record behind these values is patent publication US20250368745A1 (published 2025).
